Measured values: the supplement of paper PMC9112550, “Optimization of the antimicrobial peptide Bac7 by deep mutational scanning” (BMC Biology, 2022)

Test system: Escherichia coli TOP10
Assay: shrunken log2 fold change of peptide-encoding DNA abundance (4.5 h post-induction vs induction); higher = less antimicrobial activity (less host growth inhibition)
Settings: time post-induction: 4.5 h; library: site-saturation at positions 5, 18, 19, 20
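Further: peptides expressed intracellularly from a pBAD plasmid library in pooled LB shake-flask culture, induced with 0.3% L-arabinose, DNA abundance read by NGS, three biological replicates, DESeq2 with apeglm shrinkage.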

Sequence	shrunken log2 fold change
RRIRGRPPRLPRPRPRPNDMPRP	-0.0212
RRIRGRPPRLPRPRPRPNFFPRP	0.122
RRIRGRPPRLPRPRPRPNFVPRP	-0.0668
RRIRGRPPRLPRPRPRPNGYPRP	-0.00669
RRIRGRPPRLPRPRPRPNHMPRP	-0.0194
RRIRGRPPRLPRPRPRPNIAPRP	0.197
RRIRGRPPRLPRPRPRPNIKPRP	0.136
RRIRGRPPRLPRPRPRPNINPRP	0.337
RRIRGRPPRLPRPRPRPNKSPRP	0.96
RRIRGRPPRLPRPRPRPNKYPRP	-0.0952
RRIRGRPPRLPRPRPRPNLAPRP	0.961
RRIRGRPPRLPRPRPRPNMVPRP	-0.00462
RRIRGRPPRLPRPRPRPNQKPRP	0.0822
RRIRGRPPRLPRPRPRPNRDPRP	0.0612
RRIRGRPPRLPRPRPRPNRIPRP	0.281
RRIRGRPPRLPRPRPRPNTDPRP	0.197
RRIRGRPPRLPRPRPRPNTKPRP	-0.066
RRIRGRPPRLPRPRPRPNTLPRP	-0.145
RRIRGRPPRLPRPRPRPNVDPRP	0.715
RRIRGRPPRLPRPRPRPNYCPRP	0.00136
RRIRGRPPRLPRPRPRPNYEPRP	0.161
RRIRGRPPRLPRPRPRPPAAPRP	1.63
RRIRGRPPRLPRPRPRPPAVPRP	1.27
RRIRGRPPRLPRPRPRPPCGPRP	0.554
RRIRGRPPRLPRPRPRPPDAPRP	1.45

Sequence	shrunken log2 fold change
RRIRGRPPRLPRPRPRPPDPPRP	1.57
RRIRGRPPRLPRPRPRPPFDPRP	0.835
RRIRGRPPRLPRPRPRPPFFPRP	0.851
RRIRGRPPRLPRPRPRPPFWPRP	1.09
RRIRGRPPRLPRPRPRPPHMPRP	0.489
RRIRGRPPRLPRPRPRPPIYPRP	0.132
RRIRGRPPRLPRPRPRPPMCPRP	0.525
RRIRGRPPRLPRPRPRPPPFPRP	0.887
RRIRGRPPRLPRPRPRPPRFPRP	1.04
RRIRGRPPRLPRPRPRPPRVPRP	1.15
RRIRGRPPRLPRPRPRPPSHPRP	0.597
RRIRGRPPRLPRPRPRPPSNPRP	0.374
RRIRGRPPRLPRPRPRPPSWPRP	1.24
RRIRGRPPRLPRPRPRPPVCPRP	0.213
RRIRGRPPRLPRPRPRPPVSPRP	0.604
RRIRGRPPRLPRPRPRPPWGPRP	0.651
RRIRGRPPRLPRPRPRPPWPPRP	0.871
RRIRGRPPRLPRPRPRPQCRPRP	0.0701
RRIRGRPPRLPRPRPRPQDMPRP	0.0811
RRIRGRPPRLPRPRPRPQDRPRP	0.297
RRIRGRPPRLPRPRPRPQEGPRP	0.0358
RRIRGRPPRLPRPRPRPQFLPRP	-0.0259
RRIRGRPPRLPRPRPRPQGRPRP	0.553
RRIRGRPPRLPRPRPRPQHMPRP	0.231
RRIRGRPPRLPRPRPRPQIDPRP	0.565

Sequence	shrunken log2 fold change
RRIRGRPPRLPRPRPRPQIFPRP	-0.0563
RRIRGRPPRLPRPRPRPQIMPRP	0.173
RRIRGRPPRLPRPRPRPQIYPRP	0.185
RRIRGRPPRLPRPRPRPQKEPRP	0.0631
RRIRGRPPRLPRPRPRPQKGPRP	0.0565
RRIRGRPPRLPRPRPRPQLFPRP	0.838
RRIRGRPPRLPRPRPRPQMQPRP	1.04
RRIRGRPPRLPRPRPRPQNAPRP	0.00487
RRIRGRPPRLPRPRPRPQPIPRP	0.114
RRIRGRPPRLPRPRPRPQQDPRP	0.357
RRIRGRPPRLPRPRPRPQQGPRP	0.0431
RRIRGRPPRLPRPRPRPQRHPRP	0.338
RRIRGRPPRLPRPRPRPQTGPRP	0.162
RRIRGRPPRLPRPRPRPQTKPRP	0.8
RRIRGRPPRLPRPRPRPQWSPRP	0.157
RRIRGRPPRLPRPRPRPRALPRP	0.852
RRIRGRPPRLPRPRPRPRARPRP	1.09
RRIRGRPPRLPRPRPRPRAVPRP	1
RRIRGRPPRLPRPRPRPRCGPRP	0.751
RRIRGRPPRLPRPRPRPRDCPRP	1.11
RRIRGRPPRLPRPRPRPRDFPRP	0.619
RRIRGRPPRLPRPRPRPRDQPRP	1.26
RRIRGRPPRLPRPRPRPRDYPRP	0.258
RRIRGRPPRLPRPRPRPREVPRP	1.05
RRIRGRPPRLPRPRPRPRFRPRP	0.3
